Measured values as given in the DeepSol protein solubility set.

test: soluble on expression in E. coli; label from the status in PepcDB or PDB records

Sequence	soluble on expression in E. coli
MGSDKIHHHHHHMLLSRVAESLYWINRYLERAENISRFVEVSESMALDCPPGSAEPWLPLVDASGDRNKFDESYLNKTPSDVANFLIKDRENPNSILSCICMARENARQIRDVITSEMWEQINSLYWSIQEGEVIWHQPAQEQLFEIRRGCQLFYGVTDATFSHDIAWNFSKLGRLIERADKTSRILDVKYFLLLPNLKELGGALDELQWISLLRSAGAYQMFRISEQGSITPNAIASFLLLDPIFPRSVRFCLEGINESLSKIQNSPVSKKPNDLECLIGLLLSKWSFVRIDHLIKDGLHEAIDSLQIDLNKLHDLIHGIYFRNDKKFDFESLQG	not soluble
MGKTNDWLDFDQLAEEKVRDALKPPSMYKVILVNDDYTPMEFVIDVLQKFFSYDVERATQLMLAVHYQGKAICGVFTAEVAETKVAMVNKYARENEHPLLCTLEKAGA	soluble
MRQSISNDVATISRISAVPAILQVITESTGLGFAAVARVTEDSWTACAVLDNLGFGLKPGGELELISTICHEIRASHKPVVIDHVAEDELFCAHHTPRRYNFQSYISIPIFLTDGSFFGTICALDPKPAKLTGTPIEAMMVSFARLLALQIEAEENMQRVQ	not soluble
MGSDKIHHHHHHMILKHRRPNIYGLMNKEGNKEEVEMIINELLNRDYKITFLPSGSSAVFLSMWIAKIYSNEISIPDMGGWQGFLKFPKLLNLKNNMIETNLGIIDLEKLDESLKENSSLILTSLAGYLAPQPLKEIKKLCEEREVLFIEDISGKIGGDCGYGDIVVCSTGTPKILNCEYGGFLGISKEIEEKLGNALNDIKILSKTYKTINYFGLLKEELLNAKKTYKKYVEASKIIKDEIENAYFREFEGISVFIECDNPKNISKKINSLIKLDNRKSITTICPNYDRILKNGIVFETKKIDISELNREVINEIIIALSSIL	not soluble
MSLMTDDIDQRLINALMADSRLSLKALAQVSGLSAPSVAERLRKLEERGVIRGYTLDVDPRCFGYQFQAIVRIRPLPGRLHEVERQIQDIAEFTECDKVTGDDCFIARLQVRSMEQLDTLLDRINGYAETNTAIVKKSPVKRRLPPMT	soluble
MAHHHHHHMPTASASREPLVPSINFSMVCPGVYRSGYPTKKNYSFLCALRLRSILYLCPEDYAESNLKFCEENGIHVLRFPTEGNKEPFCDVSEPLMHRILSAICDTRNLPLLIHCNKGKHRTGTVVACLRHLQGWSLVSIFEEYKRFASDKARVGDQQYVELYHPIVKLTPPFVALWVTVTPRVTLVTSDRELMEAEAMQLGYSLLAPDKHLMKNGSSTNKSTAPTAAAASGAASVTAAPAAAAAATAGSGPTVAVSTSGPSAAGAMQQQQPSQPVTSAASASASNSGHSLAPSLMATAATPAAADR	not soluble
MIGGSGRFLVNLESLNGVESIGNLTKHRTAPVVLKTSTGYLVRYVPVISGEALAHAYQASLVDIAKKEGLPVGNLSSQYEFIKFSTDEALKIEGIKEPKDYNDARRFEVEVMLKDVIADVGGFMYAGSAPVRRTSRIKLGYMIPALRGDEIPAQLEAQFHVRFSNKPVKGSQAIFNVEVSSALYTFSFELDEDLIAVPSTVGEKVKGEEELERQKARRVDSAIKALYSLLAGNFGGKRSRFLPSMKLMSLVVVKTDFPFIPEPGHDDSYIKTTVMRLEKAKSVLNGNVAKVYVINNEGIEVGEGATVLSSVEDLVAKLKEK	not soluble
RIVEIPVCYGGEFGPDLEEVAKINQLSPEEVIDIHTNGEYVVYMLGFAPGFPFLGGMSKRIAAPRKSSPRPSIPAGSVGIAGLQTGVYPISTPGGWQLIGKTPLALFRPQENPPTLLRAGDIVKFVRISEKDYHAYKEESN	soluble
MIYIIGSGIAGLSAGVALRRAGKKVTLISKRIDGGSTPIAKGGVAASVGSDDSPELHAQDTIRVGDGLCDVKTVNYVTSEAKNVIETFESWGFEFEEDLRLEGGHTKRRVLHRTDETGREIFNFLLKLAREEGIPIIEDRLVEIRVKDGKVTGFVTEKRGLVEDVDKLVLATGGYSYLYEYSSTQSTNIGDGMAIAFKAGTILADMEFVQFHPTVTSLDGEVFLLTETLRGEGAQIINENGERFLFNYDKRGELAPRDILSRAIYIEMLKGHKVFIDLSKIEDFERKFPVVAKYLARHGHNYKVKIPIFPAAHFVDGGIRVNIRGESNIVNLYAIGEVSDSGLHGANRLASNSLLEGLVFGINLPRYVDSSWEGISTDDGIVHSVRISGNKTLSLKEIRRINWENVGIIRNEEKLVKAINTYSSSTQNEAIISYLTALAAEIRKESRGNHFREDYPYKDPNWEKRIYFKLVV	soluble
EVQLVESGGGLVQPGGSLRLSCAASGFTFSDYGIAWVRQAPGKGLEWVAFISDLAYTIYYADTVTGRFTISRDNSKNTLYLQMNSLRAEDTAVYYCARDNWDAMDYWGQGTLVTVSSASTKGPSVFPLAPSSKSTSGGTAALGCLVKDYFPEPVTVSWNSGALTSGVHTFPAVLQSSGLYSLSSVVTVPSSSLGTQTYICNVNHKPSNTKVDKKVEPKSCDKTHTC	soluble
KSPVREPVDNLSPEERDARTVFCMQLAARIRPRDLEDFFSAVGKVRDVRIISDRNSRRSKGIAYVEFCEIQSVPLAIGLTGQRLLGVPIIVQASQAEKNRL	soluble
MERAESSSTEPAKAIKPIDRKSVHQICSGQVVLSLSTAVKELVENSLDAGATNIDLKLKDYGVDLIEVSDNGCGVEEENFEGLTLKHHTSKIQEFADLTQVETFGFRGEALSSLCALSDVTISTCHASAKVGTRLMFDHNGKIIQKTPYPRPRGTTVSVQQLFSTLPVRHKEFQRNIKKEYAKMVQVLHAYCIISAGIRVSCTNQLGQGKRQPVVCTGGSPSIKENIGSVFGQKQLQSLIPFVQLPPSDSVCEEYGLSCSDALHNLFYISGFISQCTHGVGRSSTDRQFFFINRRPCDPAKVCRLVNEVYHMYNRHQYPFVVLNISVDSECVDINVTPDKRQILLQEEKLLLAVLKTSLIGMFDS	soluble
MDDSMDYPDRDGDDLDQFQGTARSQVVQNQPHDEEVNLSESESFAGADEPPAAPRDASLIESHDMDEGPAAPARTLSPTGYEAGKHAPGGIANSDEAPPGAYNAQEYKHLNVGEDVRELFSYIGRYKPQTVELDTRIKPFIPDYIPAVGGIDEFIKVPRPDTKPDYLGLKVLDEPAAKQSDPTVLTLQLRQLSKEAPGAKADMVGRLEHTDENKAKKIQQWIASINDIHKAKPAATVNYSKRMPEIEALMQEWPPEVETFLKTMHMPSGDVELDIKTYARLVCTLLDIPVYDDPVESLHVLFTLYLEFKNNPIFRQHMEMENKLDGMSGGGGGMMGGGADVLGL	not soluble
MAHHHHHHMTITLDSFNEQKVHNNQNKRKYNCRLNFKRFTKRRNNYNEDNRDSKINIKTALIKNEVISDDNDEFIDSNLMRTCHRFRLYKHSSNKIDIYYPYDKKKLDKYDYERDQTFCSLTDIEDVVNNGDDKSSKFFYYKNKSLNDYKSCFEKKNKKTKWFRLRKKKKKDHAMDESLKYLNESVCSNYKEANKNNKLDNSSKYSKNCVINTTVNGIRGFSAWIF	not soluble
TLTIYPAAKPNGLAVVACPGGGYIRLAMNHEGHDMADWFNAQGITYAVLKYRMPNGHHDVPLSDAHQAIRLMREHANEWHIQKVGIMGASAGGHLASTAATHYTAGTRPDFQILFYPVISMDLSNCHKGSRDNLLGKSPSEELVRLYSNELQVTGDTPPAFIMHSSDDGAVPVSNSVSYYLALVKNKVPASLHTYPIGGHGWGFRDSFTYKRQWTGELEKWLREIL	not soluble
MNTQNYTYSTTGYQPSQPSGGQQSYNETRQYSSNATSNYPSQTQQYQQQQHQYQSDHSNAQRLLNSGYNTNQVDYVLGHKDKYNEGPHYQPPIINSSATAANNSSSSTHHYNSSSQAIPLGGPNQGHSSSSYTTETRVTGGGTGAPVSNNYSNQNYSSSAYNSQSSQHQTKSIPVQNYQISFPPLSVSTPAFGTSFFENSQKSFQESSEKFHRDLASPLSRTIPVQSAGHFSEVSKYFNSEEEENYQVSQPAIPLPSADQVYEVSSNYNKSYSSQTTTQHQPQPVAANNNYSTSYHTERSSTTTAQQPQTIALPPPQNNSSHTETHSSTGPIMMHSPGGHSMKSTEFSSSRHHKQETTTTTTTTPQPPVFQTTTYPTTKTTSYNYSSSTIPSQPAKPSFNQESYTTHTERNNSSQGFPQQRLQPSGGYSYENYSSSRKEENRREETSRPVSQLSQYSESRNYKRNYEEKTETTTVPSLAPATNVTYKDLSNAQCVDDVFNKKTEMNESLPVGSVFNTHNNTEGGYRDANGHDVSYKRETQTSADPGRETALLKEEEKRVVETPLEPGVISRHVTTKYYKKKTVTDTTTTTA	not soluble
AMDFPQQLEACVKQANQALSRFIAPLPFQNTPVVETMQYGALLGGKRLRPFLVYATGHMFGVSTNTLDAPAAAVECIHAYSLIHDDLPAMDDDDLRRGLPTCHVKFGEANAILAGDALQTLAFSILSDADMPEVSDRDRISMISELASASGIAGMCGGQALDLDAEGKHVPLDALERIHRHKTGALIRAAVRLGALSAGDKGRRALPVLDKYAESIGLAFQVQDDILDVVGDTATLGKRQGADQQLGKSTYPALLGLEQARKKARDLIDDARQSLKQLAEQSLDTSALEALADYIIQRNK	soluble
MGSDKIHHHHHHMKKAVLIVNPSSGGEKAKEFETLAEEKLKQLFDEVVVKQTEKGGDAEQFAREAAESHFDSVFVMGGDGTVNEGISGLAEQAYRPKFGFFPLGTVNDLARALNLPMDPEEAIQQLDLEKTSALDVGKINDDYFMNVVAIGTIPESINDVDVEQKTKLGKLAYFISGAKHLANAQTYPFHLSLDQKEQTIESSTVLVGLTNSIGGFETLLPEAQVDDGKLHLVYLKDQSLWDAVKAVPDLLKGVDQSTDNLVYLTFKEGTISLENQEELTTNVDGDEGAALPITLKILPKHLTVYCGEEQTK	not soluble
MPEVSVEKPLSVIPPEFCANANCPFSPKEISVLRIKVRGGVSKEEILQVNSASRPALPRQHSASTVSPLQSSSDELNNDSGIDNRTVGSPSTSEFSPRSTDLFVSPKSIIDEEPPHHPPPPPPVEEKLDQVLIPLKLSRGQDYAPIYRSLEQDTYYDQSPSESEKDEDLGLTNTKRYTENFRSVEKNQYMPVMSARVEATFKQPPPREGVKPFVSRAAQDITHNGESKVENIDLTIELNREQKATVTATKYPRTDFIMEDYHRPQTQILAPAPKKPNSTTRIYHAVDIPFDESPASYYPKQNNGYQRQRRYSASSASKQDGMFTLNVIMGSQPVHKGMGFSTVKRDERVIVESVIVGSPADKAGLLVGDTILSINGEEMSDKYQSGVTRILHEAARVGEADVLILRAPVPAPMLSKQMSTSSSNSSNYDKARSVFTENKSFDSYAEFKRKHTRTSRDSNSSNATRSSRDFNSLPRGTTAQSSLDRKRDTSLSSYRTAKDNFNSSSNRSSGRSEYGDYRVSNYQEKNAPGRLTDFVPEVDRRLSRREQSEEIYSRSQRDEEPRTIRNYHLSNENIARTNLNYDGRRDSEEESTTTTLKRTTLPRSGTAQWKNEYSDGEEVTEKLPVTSRDSSPLRSALKKSSHNYYHQSSDPVAPPPRRYYSTESLQLPKTSSYQRYSEEEDEEIEETYSSMRRHRQEIPRHVDEFHTVGSYGVMPQRSRSQQPARLPRYDSVPDDVDEVSGVSHRFYDRSGNHVRAPRERIHDIQIQRDYGDRAPSRDLDFVRNTYKWEEQLEDTKVTTTTKIYEKESRDWRDVINQQRQAAPGNSADRRGIAATSSSLSNLPSYINRRMEKEREREIEYRRDREYSMPPADPPVITEKYERDEYSRVEERTYPVPVARNKMRREETQMQSSLQQMHSQSSQKDDSVVAVSGKHRCAHCNEELGRGAAMIVESLNLFYHLACFKCYVCKTSLGSGATGADVRVRDGRLHCQTCYSNDRVQLSKV	not soluble
